For test [1], the target named is T1, Recombinant human TGF-β1 (human, UniProt P01137 279-390).
T1 construct: It was amine coupled to the CM5 chip in SPR and used at 10 pM in the luciferase assay; also called transforming growth factor-β1
As to the kind of experiment: SPR, TGF-β1 coupled, two-to-one stoichiometry model, kdiss 2 (second site). On the procedure: (§1) As described in Example 3, TGF-β1 was coupled to the biosensor surface (approximately 250 RUs) by a standard amino coupling procedure. […] After data preparation by the ‘double referencing’ method, the set of sensorgrams was globally fit using a kinetic model depicting the presence of two independent TβRIIED binding sites on the TGF-β1 molecule (two-to-one stoichiometry model).
(§2) Regeneration of the sensor chip for subsequent injections was accomplished by two pulses of HCl (20 mM, 120 seconds), followed by an EXTRACLEAN procedure performed according to the BIACORE manual.
Background: Surface plasmon resonance follows binding to a sensor surface in real time, without labels.

In test [2] the target is T1, Recombinant human TGF-β1. As to the kind of experiment: SPR, TGF-β1 coupled, two-to-one stoichiometry model, Kd 1 (first site). On the procedure: as §1, §2
Test [3] concerns the target T2, TβRIIED-E5 fusion protein (human).
T2 construct: Secreted from HEK 293SF cells; also called TβRII ED-E5 coil; E5 coiled-tagged TβRIIED
T2 chain: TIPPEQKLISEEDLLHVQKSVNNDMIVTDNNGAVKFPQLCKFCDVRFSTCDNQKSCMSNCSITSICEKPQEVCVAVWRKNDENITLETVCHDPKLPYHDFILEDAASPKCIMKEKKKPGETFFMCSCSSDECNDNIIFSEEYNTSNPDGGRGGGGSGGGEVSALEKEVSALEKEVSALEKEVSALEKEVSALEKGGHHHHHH
In words: SPR (BIACORE), TβRIIED-E5 captured on the coupled anti hTGF-βRII antibody, TβRIIED-K5 injected at 50 nM. On the procedure: A solution of 0.1 M ethanolamine-HCl (pH 8.5, 35 μL) was then used to block the remaining activated carboxyl groups.
Three studies were then performed at a flow rate of 5 μL/min: [0183] […] [0184] […] [0185]

In test [4] the target is T1, Recombinant human TGF-β1. In words: SPR, TGF-β1 coupled, two-to-one stoichiometry model, Kd 2 (second site). On the procedure: as §1, §2
Test [5] addresses T1, Recombinant human TGF-β1. In words: SPR, TGF-β1 coupled, two-to-one stoichiometry model, kass 1 (first site). The procedure: as §1, §2
The target in test [6] is T1, Recombinant human TGF-β1. In words: SPR, TGF-β1 coupled, two-to-one stoichiometry model, kdiss 1 (first site). The procedure: as §1, §2
Test [7] addresses T1, Recombinant human TGF-β1. In words: SPR, TGF-β1 coupled, two-to-one stoichiometry model, kass 2 (second site). The procedure:
as §1, §2

The values that follow come from US20070154994A1 (NATIONAL RESEARCH COUNCIL OF CANADA, published 2007).

T1 sequence (P01137 279-390 limits assumed): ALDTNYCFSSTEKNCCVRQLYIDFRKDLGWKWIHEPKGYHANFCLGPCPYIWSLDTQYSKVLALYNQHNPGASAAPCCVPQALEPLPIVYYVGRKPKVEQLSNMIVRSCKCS

B1: TβRIIED-K5 fusion protein (receptor)
chain: TIPPEQKLISEEDLLHVQKSVNNDMIVTDNNGAVKFPQLCKFCDVRFSTCDNQKSCMSNCSITSICEKPQEVCVAVWRKNDENITLETVCHDPKLPYHDFILEDAASPKCIMKEKKKPGETFFMCSCSSDECNDNIIFSEEYNTSNPDGGRGGGGSGGGKVSALKEKVSALKEKVSALKEKVSALKEKVSALKEGGHHHHHH
notes: Secreted from HEK 293SF cells; The monomer was separated from aggregates with a Centriprep 30; also called K5 coiled-tagged TβRIIED; monomeric TβRIIED-K5
The koff is the first-order rate constant of dissociation. The term Kd denotes the free concentration of one partner at which half of the binding sites on the other are occupied at equilibrium, for simple one-to-one binding. The term kon denotes a measure of how fast the partners come together. For the molecule B1, the koff with Recombinant human TGF-β1 [1] was determined as 0.0026 s⁻¹; with Recombinant human TGF-β1 [6], 0.033 s⁻¹. Moreover, the Kd was 90 nM with Recombinant human TGF-β1 [2] and 1250 nM with Recombinant human TGF-β1 [4]. The binding result in test [3] is “binds”. For the same molecule, the kon is 365000 M⁻¹ s⁻¹ with Recombinant human TGF-β1 [5] and 1900 M⁻¹ s⁻¹ with Recombinant human TGF-β1 [7].
